From article doi:10.1101/2020.10.29.360743 come the findings set out here.

As usually defined, the stoichiometry N is a count of units in the complex or per binding partner.

For this assay, the target named is AcoD, ATP-dependent DMSP lyase of Psychrobacter sp. D2 (Psychrobacter sp. D2). Put plainly: SEC. In general terms: Size exclusion chromatography separates by hydrodynamic size, large species first.

In turn, “AcoD, ATP-dependent DMSP lyase of Psychrobacter sp. D2 (enzyme)” came in with a stoichiometry N of 2.
